According to patent US20200299407 (published 2020):

B1: Herceptarg CrossMab Pertuzumab arm (antibody)
chain 1: not shown
chain 2: DIQMTQSPSSLSASVGDRVTITCKASQDVSIGVAWYQQKPGKAPKLLIYSASYRYTGVPSRFSGSGSGTDFTLTISSLQPEDFATYYCQQYYIYPYTFGQGTKVEIKSSASTKGPSVFPLAPSSKSTSGGTAALGCLVKDYFPEPVTVSWNSGALTSGVHTFPAVLQSSGLYSLSSVVTVPSSSLGTQTYICNVNHKPSNTKVDKKVEPKSC
B2: VH23-DANG/VL0(rb) (antibody, V domains shown)
VH: QSMQESGPGLVKPSQTLSLTCTVSGFSLSSYAMSWIRQHPGKGLEWIGYIWSGGSTDYASWAKSRVTISKTSTTVSLKLSSVTAADTAVYYCARRYGTSYPDYGDANGFDPWGQGTLVTVSS
VL: AYDMTQTPASVEVAVGGTVTIKCQASQSISSYLSWYQQKPGQRPKLLIYRASTLASGVSSRFKGSGSGTQFTLTISGVECADAATYYCQQCYSSSNVDNTFGGGTEVVVKR
B3: Pertuzumab (antibody)
chain 1: EVQLVESGGGLVQPGGSLRLSCAASGFTFTDYTMDWVRQAPGKGLEWVADVNPNSGGSIYNQRFKGRFTLSVDRSKNTLYLQMNSLRAEDTAVYYCARNLGPSFYFDYWGQGTLVTVSS
chain 2: DIQMTQSPSSLSASVGDRVTITCKASQDVSIGVAWYQQKPGKAPKLLIYSASYRYTGVPSRFSGSGSGTDFTLTISSLQPEDFATYYCQQYYIYPYTFGQGTKVEIK
B4: Herceptarg G2 Trastuzumab arm (antibody, V domains shown)
VH: not shown
VL: DIQMTQSPSSLSASVGDRVTITCKASQDVSTAVAWYQQKPGKAPKLLIYSASFRYTGVPSRFSGSRSGTDFTLTISSLQPEDFATYYCQQHYTTPPTFGQGTKVEIK
B5: Herceptarg G2 Pertuzumab arm (antibody, V domains shown)
VH: EVQLVESGGGLVQPGGSLRLSCAASGFTFTDYTMDWVRQAPGKGLEWVADVNPNSGGYIVNRRFKGRFTLSVDRSKNTLYLQMNSLRAEDTAVYYCARNLGPSFYFDYWGQGTLVTVSS
VL: DIQMTQSPSSLSASVGDRVTITCKASQDVSTAVAWYQQKPGKAPKLLIYSASFRYTGVPSRFSGSRSGTDFTLTISSLQPEDFATYYCQQHYTTPPTFGQGTKVEIK
B6: Herceptarg D1-derived Trastuzumab arm (antibody, V domains shown)
VH: not shown
VL: DIQMTQSPSSLSASVGDRVTITCKASQDVSTAVAWYQQKPGKAPKLLIYSASFRYTGVPSRFSGSRSGTDFTLTISSLQPEDFATYYCQQHYTTPPTFGQGTKVEIK
B7: Herceptarg E1 Pertuzumab arm (antibody, V domains shown)
VH: EVQLVESGGGLVQPGGSLRLSCAASGFTFADYTMDWVRQAPGKGLEWVADVNPNSGGSIYNQRFKGRFTLSVDRSKNTLYLQMNSLRAEDTAVYYCARNLGPWFYFDYWGQGTLVTVSS
VL: DIQMTQSPSSLSASVGDRVTITCKASQDVSTAVAWYQQKPGKAPKLLIYSASFRYTGVPSRFSGSRSGTDFTLTISSLQPEDFATYYCQQHYTTPPTFGQGTKVEIK
B8: Herceptarg D1-derived Pertuzumab arm (antibody, V domains shown)
VH: EVQLVESGGGLVQPGGSLRLSCAASGFTFNDYTMDWVRQAPGKGLEWVADVNPNSGGSIVNRRFKGRFTLSVDRSKNTLYLQMNSLRAEDTAVYYCARNLGPFFYFDYWGQGTLVTVSS
VL: DIQMTQSPSSLSASVGDRVTITCKASQDVSTAVAWYQQKPGKAPKLLIYSASFRYTGVPSRFSGSRSGTDFTLTISSLQPEDFATYYCQQHYTTPPTFGQGTKVEIK
B9: Herceptarg CLC Trastuzumab arm (E1) (antibody, V domains shown)
VH: not shown
VL: DIQMTQSPSSLSASVGDRVTITCKASQDVSTAVAWYQQKPGKAPKLLIYSASFRYTGVPSRFSGSRSGTDFTLTISSLQPEDFATYYCQQHYTTPPTFGQGTKVEIK
B10: Herceptarg CrossMab Trastuzumab arm (antibody, V domains shown)
VH: QVQLVQSGAEVKKPGASVKVSCKASGFNIKDTYIHWVRQAPGQGLEWMGRIYPTNGYTRYAQKFQGRVTMTRDTSISTAYMELSRLRSDDTAVYYCSRWGGEGFYAMDYWGQGTMVTVSS
VL: DIQLTQPPSVSVAPGQTARITCGASQDVSTAVAWYQQKPGQAPVLVVYSASFLYSGIPSRFSGSRSGTDFTLTISRVEAGDEADYYCQQHYTTPPTFGTGTKVTVLR

Tests used:
[1] = target: Her2 ECD (Trastuzumab KO)-Fc knob (human); assay: SPR, 25C
[2] = target: human transferrin receptor (human, UniProt P02786); assay: SPR
[3] = target: Her2 ECD (Pertuzumab KO)-Fc knob (human); assay: SPR
[4] = target: HER2 ECD (aa 1-629 mature) (human); assay: SPR
[5] = target: Her2 ECD (Trastuzumab KO)-Fc knob (human); assay: SPR
[6] = target: Her2 ECD (Pertuzumab KO)-Fc knob (human); assay: SPR, 25C

Chain of human transferrin receptor (P02786 89-760): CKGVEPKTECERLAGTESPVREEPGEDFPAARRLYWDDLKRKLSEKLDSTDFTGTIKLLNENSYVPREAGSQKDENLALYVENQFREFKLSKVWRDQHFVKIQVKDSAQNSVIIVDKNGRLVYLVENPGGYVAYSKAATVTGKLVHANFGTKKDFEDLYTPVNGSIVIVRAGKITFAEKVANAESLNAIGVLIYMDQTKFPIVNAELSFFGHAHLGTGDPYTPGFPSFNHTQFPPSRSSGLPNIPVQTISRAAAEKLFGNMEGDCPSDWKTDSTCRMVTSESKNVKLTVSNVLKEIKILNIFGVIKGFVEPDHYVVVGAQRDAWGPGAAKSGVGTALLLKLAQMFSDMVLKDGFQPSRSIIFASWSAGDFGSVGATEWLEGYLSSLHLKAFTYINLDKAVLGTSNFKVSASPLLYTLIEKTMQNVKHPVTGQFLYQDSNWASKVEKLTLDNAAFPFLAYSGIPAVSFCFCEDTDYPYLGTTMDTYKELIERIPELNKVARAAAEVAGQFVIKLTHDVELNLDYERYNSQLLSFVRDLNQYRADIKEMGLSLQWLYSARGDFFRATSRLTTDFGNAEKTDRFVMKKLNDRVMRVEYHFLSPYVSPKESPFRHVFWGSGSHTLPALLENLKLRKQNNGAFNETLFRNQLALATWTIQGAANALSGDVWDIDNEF

Binder | Kd [1] [pM] | Kd [6] [pM] | other results
B1 | 840 | – | –
B2 | – | – | koff [2]: 0.000338 s⁻¹
B3 | – | – | binding result [3]: no binding; Kd [4]: 147 pM; Kd [5]: 620 pM
B4 | – | 1820 | –
B5 | 9650 | – | –
B6 | – | 600 | –
B7 | 1320 | – | –
B8 | 160 | – | –
B9 | – | 720 | –
B10 | – | 800 | –
